Among the data in paper PMC9180478 are ratio to parent values, retold here.

One experiment concerns the target Myc-PCNA (UniProt P12004). Nature of the experiment: FLAG-immunoprecipitation, immunoblot. Particulars: transient co-expression with Myc-PCNA; parent: 1.00. In general terms: Immunoblotting shows a protein as a band on a membrane.
The next experiment has as its target Myc-PCNA (C81R) (UniProt P12004). The experiment in a line: FLAG-immunoprecipitation, immunoblot. Particulars: transient co-expression with Myc-PCNA (C81R); parent: 1.00.

For “FLAG-ATAD5 (812–1844) (from UniProt Q96QE3) 815SSQD818 to GGAA”, the ratio to parent with Myc-PCNA amounted to 0.91.

For the substance “FLAG-ATAD5 (812–1844) (from UniProt Q96QE3) 815SSQD818 to GGAA; S824A; Q825A; D826A”, the ratio to parent in the experiment with Myc-PCNA (C81R) is 0.91; in the experiment with Myc-PCNA, 1.35.
